Measured values: article PMC6032241, “UDP-Glucose 4-Epimerase and β-1,4-Galactosyltransferase from the Oyster Magallana gigas as Valuable Biocatalysts for the Production of Galactosylated Products” (International Journal of Molecular Sciences, 2018)

T1: MgGalT7 (Magallana gigas, UniProt Z9LX56G651)
T1 sequence (Z9LX56G651 34-312): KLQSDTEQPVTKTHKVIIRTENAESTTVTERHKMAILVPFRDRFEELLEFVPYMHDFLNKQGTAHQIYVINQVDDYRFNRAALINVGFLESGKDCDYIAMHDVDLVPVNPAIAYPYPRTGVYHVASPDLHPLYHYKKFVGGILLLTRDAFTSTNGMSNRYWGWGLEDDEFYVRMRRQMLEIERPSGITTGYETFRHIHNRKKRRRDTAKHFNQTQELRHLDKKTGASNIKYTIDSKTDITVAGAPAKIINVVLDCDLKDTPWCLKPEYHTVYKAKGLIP

B1: MgUGE (Magallana gigas) (protein)
chain: MGDSCILVTGGAGFVGSHSVIELIEAGYSVVVMDNLANASMESIKRVEEITGKSIPSYSVDLLDKPALSDLFNKHKFTSVIHFAGLKAVGESCQLPLLYYKNNVGGTVNLLEVMKEKGVKNLIFSSSATVYGSPQYLPIDEKHPVGGCTNPYGKTKYFIEEILRDLHKAEPDWNIIMLRYFNPVGAHKSGKIGEDPQGIPNNLMPFIAQVAVGKRAELSVYGSDYDTPDGTGVRDYIHVVDLAQGHVAAQKKIEKKCGCKVYNLGTGKGYSVIEMAKAFEEASGKPIPFKKVDRRAGDVASVYGNADLAKEELGWSASRDLKQMCEDTWRWQSSNPNGFRK
notes: forward primer encodes N-terminus MGDSCIL

Legend:
MgGalT7 = target: T1, MgGalT7; experiment: coupled galactosylation with MgUGE, HPLC-ESI-MS; assay type: biochemical; details: acceptor 10 mM; 15 mM UDP-glucose converted to UDP-galactose by MgUGE, 1 mM MnCl2, 50 mM Tris-HCl pH 8.0, 37 °C, 24 h
purified protein = substrate: O=c1ccn([C@@H]2O[C@H](COP(=O)(O)OP(=O)(O)O[C@H]3O[C@H](CO)[C@H](O)[C@H](O)[C@H]3O)[C@@H](O)[C@H]2O)c(=O)[nH]1; experiment: purified protein; assay type: biochemical, Magallana gigas; details: 50 mM Tris-HCl pH 8.0, 22 °C, UDP-galactose 10 µM to 2 mM

Row | Molecule | coupled galactosylation with MgUGE, HPLC-ESI-MS (MgGalT7) | Km (purified protein) | kcat (purified protein)
1 | O=[N+]([O-])c1ccc(O[C@H]2OC[C@@H](O)[C@H](O)[C@H]2O)cc1 [pNP-xylose] | (MgGalT7), allowing the galactosylation of the model substrate para-nitrophenol xylose (pNP-xylose) |  | 
2 | B1 |  | 1600 ± 100 µM | 2.23 ± 0.2 s⁻¹
